Values belong to the binder of their own block, whether it stands above or below them.
Tests used:
[1] = biological target: T1, Myc-tagged human GPAT3 (GPAT3-Myc), Q53EU6; test: co-immunoprecipitation (anti-FLAG IP, immunoblot quantification); conditions: chain shown with the change; HEK293 cells; n = 3; parent: est. 1.0; read off a plot
T1 chain: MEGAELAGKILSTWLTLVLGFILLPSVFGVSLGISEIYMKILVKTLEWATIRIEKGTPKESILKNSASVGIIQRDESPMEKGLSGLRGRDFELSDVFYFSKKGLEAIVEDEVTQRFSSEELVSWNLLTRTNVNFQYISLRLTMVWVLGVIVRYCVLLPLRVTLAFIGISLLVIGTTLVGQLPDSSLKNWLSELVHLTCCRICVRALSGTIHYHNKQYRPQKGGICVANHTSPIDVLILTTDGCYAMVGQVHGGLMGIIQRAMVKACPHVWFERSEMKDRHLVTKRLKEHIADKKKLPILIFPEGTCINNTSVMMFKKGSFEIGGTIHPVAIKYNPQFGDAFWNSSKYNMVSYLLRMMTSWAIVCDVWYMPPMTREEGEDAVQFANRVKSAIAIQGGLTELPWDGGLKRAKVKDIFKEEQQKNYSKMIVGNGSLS

[2] = biological target: N-terminal FLAG-tagged seipin L91P (human) (UniProt Q96G97); test: co-IP; HEK293 cells co-transfected, lysed 48 h later in ODG lysis buffer (50 mM n-octyl-β-D-glucopyranoside, 50 mM Tris pH 6.8, 150 mM NaCl, 1 mM EDTA); anti-FLAG-agarose beads 2 h at 4 °C, eluted with 3xFLAG peptide; immunoblot for FLAG and Myc
[3] = biological target: N-terminal FLAG-tagged seipin A212P (human) (UniProt Q96G97); test: as above
[4] = biological target: Seipin-Myc, wild type (human) (UniProt Q96G97); test: atomic force microscopy; proteins co-isolated on anti-Myc beads from co-transfected tsA 201 cells, eluted and imaged in tapping mode in air; particle volumes and angles

ratio to parent [1]: 0.84 fold vs WT
B1: N-terminal FLAG-tagged wild-type seipin (WT), Q96G97 T78A (protein)
chain: MVNDPPVPALLWAQEVGQVLAGRARRLLLQFGVLFCTILLLLWVSVFLYGSFYYSYMPTVSHLSPVHFYYRTDCDSSATSLCSFPVANVSLTKGGRDRVLMYGQPYRVTLELELPESPVNQDLGMFLVTISCYTRGGRIISTSSRSVMLHYRSDLLQMLDTLVFSSLLLFGFAEQKQLLEVELYADYRENSYVPTTGAIIEIHSKRIQLYGAYLRIHAHFTGLRYLLYNFPMTCAFIGVASNFTFLSVIVLFSYMQWVWGGIWPRHRFSLQVNIRKRDNSRKEVQRRISAHQPGPEGQEESTPQSDVTEDGESPEDPSGTEGQLSEEEKPDQQPLSGEEELEPEASDGSGSWEDAALLTEANLPAPAPASASAPVLETLGSSEPAGGALRQRPTCSSS

reduction of the co-immunoprecipitation against wild-type seipin [2]: 50%
reduction of the co-immunoprecipitation against wild-type seipin [3]: 50%
B2: Myc-tagged human GPAT3 (GPAT3-Myc) (enzyme)
chain: MEGAELAGKILSTWLTLVLGFILLPSVFGVSLGISEIYMKILVKTLEWATIRIEKGTPKESILKNSASVGIIQRDESPMEKGLSGLRGRDFELSDVFYFSKKGLEAIVEDEVTQRFSSEELVSWNLLTRTNVNFQYISLRLTMVWVLGVIVRYCVLLPLRVTLAFIGISLLVIGTTLVGQLPDSSLKNWLSELVHLTCCRICVRALSGTIHYHNKQYRPQKGGICVANHTSPIDVLILTTDGCYAMVGQVHGGLMGIIQRAMVKACPHVWFERSEMKDRHLVTKRLKEHIADKKKLPILIFPEGTCINNTSVMMFKKGSFEIGGTIHPVAIKYNPQFGDAFWNSSKYNMVSYLLRMMTSWAIVCDVWYMPPMTREEGEDAVQFANRVKSAIAIQGGLTELPWDGGLKRAKVKDIFKEEQQKNYSKMIVGNGSLS

percent of seipin particles decorated by two GPAT3 particles [4]: 10.4%
B3: FLAG-GPAT3 (enzyme)
chain: MEGAELAGKILSTWLTLVLGFILLPSVFGVSLGISEIYMKILVKTLEWATIRIEKGTPKESILKNSASVGIIQRDESPMEKGLSGLRGRDFELSDVFYFSKKGLEAIVEDEVTQRFSSEELVSWNLLTRTNVNFQYISLRLTMVWVLGVIVRYCVLLPLRVTLAFIGISLLVIGTTLVGQLPDSSLKNWLSELVHLTCCRICVRALSGTIHYHNKQYRPQKGGICVANHTSPIDVLILTTDGCYAMVGQVHGGLMGIIQRAMVKACPHVWFERSEMKDRHLVTKRLKEHIADKKKLPILIFPEGTCINNTSVMMFKKGSFEIGGTIHPVAIKYNPQFGDAFWNSSKYNMVSYLLRMMTSWAIVCDVWYMPPMTREEGEDAVQFANRVKSAIAIQGGLTELPWDGGLKRAKVKDIFKEEQQKNYSKMIVGNGSLS

— paper PMC7039881
